This is an account of results in patent publication US20090202520A1 (PROMEDIOR, published 2009).

The labels stand for the following.
B1: soluble recombinant FcγRIIIB (sFcγRIIIB) (receptor, UniProt O75015 17-200, looked up)
chain: GMRTEDLPKAVVFLEPQWYSVLEKDSVTLKCQGAYSPEDNSTQWFHNENLISSQASSYFIDAATVNDSGEYRCQTNLSTLSDPVQLEVHIGWLLLQAPRWVFKEEDPIHLRCHSWKNTALHKVTYLQNGKDRKYFHHNSDFHIPKATLKDSGSYFCRGLVGSKNVSSETVNITITQGLAVSTIS
notes: extracellular domain; not shown: C-terminal poly-histidine tail of 6-10 histidines
B2: soluble recombinant FcγRIIA (H131 variant) (receptor)
chain: QAAPPKAVLKLEPPWINVLQEDSVTLTCQGARSPESDSIQWFHNGNLIPTHTQPSYRFKANNNDSGEYTCQTGQTSLSDPVHLTVLSEWLVLQTPHLEFQEGETIMLRCHSWKDKPLVKVTFFQNGKSQKFSHLDPTFSIPQANHSHSGDYHCTGNIGYTLFSSKPVTITVQVPSMGSSSPMG
notes: also called FcγR2A; not shown: C-terminal poly-histidine tail of 6-10 histidines
B3: soluble recombinant FcγRIIB (receptor, UniProt P31994 43-217, looked up)
chain: TPAAPPKAVLKLEPQWINVLQEDSVTLTCRGTHSPESDSIQWFHNGNLIPTHTQPSYRFKANNNDSGEYTCQTGQTSLSDPVHLTVLSEWLVLQTPHLEFQEGETIVLRCHSWKDKPLVKVTFFQNGKSKKFSRSDPNFSIPQANHSHSGDYHCTGNIGYTLYSSKPVTITVQAP
notes: as for B1
B4: C-reactive protein (CRP) (ligand, human, UniProt P02741 19-224, looked up)
chain: QTDMSRKAFVFPKESDTSYVSLKAPLTKPLKAFTVCLHFYTELSSTRGYSIFSYATKRQDNEILIFWSKDIGYSFTVGGSEILFEVPEVTVAPVHICTSWESASGIVEFWVDGKPRVRKSLKKGYTVGAEASIILGQEQDSFGGNFEGSQSLVGDIGNVNMWDFVLSPDEINTIYLGGPFSPNVLNWRALKYEVQGEVFTKPQLWP
notes: In the SPR assay CRP was captured on PC-KLH immobilised on a CM5 chip; also called hCRP; PTX1

For the assay “C-reactive protein (CRP)”, the target named is B4. The assay can be described thus: SPR steady-state plot of Req against FcγRIIIB concentration (early association phase data); CRP captured via PC-KLH on CM5 chip; dotted vertical line marks the KD estimate, beyond the highest concentration tested (3e-6 M). As for the experimental part:
(§1) Similar methods were used to evaluate binding interactions between CRP and sFcγRs, and details were the same except where stated here. Binding of CRP to Biacore CM5 chips was achieved through capture via PC-KLH (phosphocholine-keyhole limpet hemocyanin conjugate). Briefly, PC-KLH was immobilized onto a CM5 chip through amine coupling onto the chip surface activated with 1-ethyl-3-(3-dimethylaminopropyl)carbodiimide and N-hydroxysuccinimide. A negative control flow cell was prepared using the same amine coupling to immobilize human serum albumin to the same level as the PC-KLH. Binding of CRP to the PC moiety of PC-KLH immobilized on the CM5 chip was achieved by contacting the surface of the CM5 chip with the CRP in 10 mM Hepes, 150 mM NaCl, 0.5 mM CaCl₂, pH 7.4, to achieve the desired amount of bound CRP. We established that binding was specific for the PC moiety in PC-KLH, since no binding to KLH immobilized to the same level was evident when this was attempted on a different flow cell using the same conditions and the same 10 mM Hepes, 150 mM NaCl, 0.5 mM CaCl₂, pH 7.4, as running buffer. Binding of CRP to PC-KLH was stabilized by a very short immobilization using amine coupling. […]

Assay [1] deals with T1, serum amyloid P (SAP) (human, UniProt P02743 20-223).
T1 construct: Pentamer of five non-covalently associated protomers; also called hSAP; human serum amyloid protein P
The assay can be described thus: SPR (Biacore X100), SAP on CM5 chip, soluble receptor flowed, single cycle kinetics, KD = Kd/Ka. The text has this: (§2) Surface plasmon resonance technology detects and quantifies binding and dissociation events between two proteins through a change in mass at the surface of a chip that is detected as a change in surface plasmon resonance. For these studies we used a Biacore X100 instrument.
(§3) SAP was bound to the surface of the test flow cell of a chip and a soluble recombinant form of Fcγ receptor (sFcγR) was flowed across the surface of the chip, representing the contact or binding phase. Buffer was then flowed across the chip surface, representing the dissociation phase. Change in mass at the cell surface with respect to time, detected as a change in surface plasmon resonance units (RUs) with time, was represented by a graph called a sensorgram. Binding of SAP to the CM5 dextran surface of a Biacore CM5 chip was performed in the presence of 10 mM Hepes, 150 mM NaCl, 0.5 mM CaCl₂, pH 7.4 as running buffer. Binding of SAP was stabilized by a very short immobilization using amine coupling (Biacore reagents) which covalently linked a limited representation of amine-group-containing amino acids on SAP to groups on the chip surface activated with 1-ethyl-3-(3-dimethylaminopropyl)carbodiimide and N-hydroxysuccinimide. A negative control flow cell was prepared using the same amine coupling procedure to immobilize human serum albumin to the same level as SAP. […]
(SPR reads the build-up and loss of mass on a sensor chip optically.)

Assay [2] deals with T1, serum amyloid P (SAP). The assay can be described thus: SPR (Biacore X100), SAP on CM5 chip, soluble receptor flowed.
Description: as §2, §3

For assay [3], the target named is T2, soluble recombinant FcγRI (sFcγRI) (UniProt P12314 16-292).
T2 construct: extracellular domain; also called FcγR1; not shown: C-terminal poly-histidine tail of 6-10 histidines
As to the kind of experiment: SPR steady-state plot of Req against FcγRI concentration (early association phase data); CRP captured via PC-KLH on CM5 chip; vertical line marks the KD estimate. As for the experimental part:
as §1

T1 sequence (P02743 20-223): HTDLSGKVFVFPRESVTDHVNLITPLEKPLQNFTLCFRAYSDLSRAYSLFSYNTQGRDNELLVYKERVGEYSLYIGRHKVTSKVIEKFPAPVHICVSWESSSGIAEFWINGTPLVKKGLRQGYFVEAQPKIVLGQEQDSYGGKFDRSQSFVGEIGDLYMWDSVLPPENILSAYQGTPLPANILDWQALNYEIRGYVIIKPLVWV
T2 sequence (P12314 16-292): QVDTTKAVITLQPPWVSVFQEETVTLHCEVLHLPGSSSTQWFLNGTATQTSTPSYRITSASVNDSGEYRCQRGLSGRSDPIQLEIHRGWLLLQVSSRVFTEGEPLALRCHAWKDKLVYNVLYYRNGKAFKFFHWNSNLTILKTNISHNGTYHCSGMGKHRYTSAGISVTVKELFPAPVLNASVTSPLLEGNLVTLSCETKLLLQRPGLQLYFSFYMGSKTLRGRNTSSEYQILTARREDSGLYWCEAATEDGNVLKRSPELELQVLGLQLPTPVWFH

For orientation: Kd means the free concentration of one partner at which half of the binding sites on the other are occupied at equilibrium, for simple one-to-one binding. On to B1, for which the Kd with C-reactive protein (CRP) was about 15.6 µM.
The molecule B2 came in with a Kd with serum amyloid P (SAP) [1] of 0.17 nM.
For the molecule B3, in the assay with serum amyloid P (SAP) [2], the binding result is recorded as “no binding”.
As for B4, in assay [3], the Kd is about 1450 nM.
